Test results published in patent US20150258192A1, “COMPOSITIONS AND METHODS FOR PREVENTING OR TREATING CHRONIC LUNG ALLOGRAFT DYSFUNCTION (CLAD) AND IDIOPATHIC PULMONARY FIBROSIS (IPF)” (priority 2014, published 2015).
No end group written: not given here.

What was measured:
Assay in all cases: Kinase Profiling Assay
Assay type in all cases: biochemical
Settings in all cases: peptide 100 μM
[1] = molecular target: Flt4(h) (Homo sapiens, UniProt P35916)
How it was run: (§1)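 Radiometric filter-binding format: cationic substrate takes up labeled phosphate from ATP unless the inhibitor peptide blocks the kinase. Substrate bound to an anionic filter, scintillation-counted, normalized to 100% activity control. Duplicates; part of a 266-kinase selectivity panel for MK2 peptides.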

[2] = molecular target: T1, PKD2(h) (Homo sapiens, UniProt Q9BZL6)
T1 sequence (Q9BZL6 1-878): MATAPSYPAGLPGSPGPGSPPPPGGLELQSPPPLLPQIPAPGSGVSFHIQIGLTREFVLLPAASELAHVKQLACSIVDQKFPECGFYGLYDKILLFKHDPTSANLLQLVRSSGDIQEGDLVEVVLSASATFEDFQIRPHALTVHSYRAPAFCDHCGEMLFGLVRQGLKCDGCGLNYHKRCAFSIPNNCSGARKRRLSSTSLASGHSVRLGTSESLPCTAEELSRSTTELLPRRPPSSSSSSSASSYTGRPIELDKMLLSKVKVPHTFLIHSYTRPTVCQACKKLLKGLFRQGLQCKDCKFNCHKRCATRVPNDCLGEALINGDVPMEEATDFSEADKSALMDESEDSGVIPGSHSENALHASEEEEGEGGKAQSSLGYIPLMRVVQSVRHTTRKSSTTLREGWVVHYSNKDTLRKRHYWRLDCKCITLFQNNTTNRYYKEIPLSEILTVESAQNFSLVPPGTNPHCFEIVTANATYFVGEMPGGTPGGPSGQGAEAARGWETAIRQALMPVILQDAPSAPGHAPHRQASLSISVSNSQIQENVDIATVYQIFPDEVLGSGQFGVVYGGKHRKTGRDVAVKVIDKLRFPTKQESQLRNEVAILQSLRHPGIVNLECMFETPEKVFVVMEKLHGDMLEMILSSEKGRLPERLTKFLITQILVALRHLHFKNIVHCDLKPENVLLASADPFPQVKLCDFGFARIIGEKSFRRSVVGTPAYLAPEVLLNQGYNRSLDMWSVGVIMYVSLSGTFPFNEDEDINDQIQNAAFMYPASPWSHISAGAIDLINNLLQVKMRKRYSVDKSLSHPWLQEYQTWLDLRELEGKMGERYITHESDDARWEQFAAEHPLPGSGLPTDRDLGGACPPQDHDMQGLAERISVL
How it was run: as §1

[3] = molecular target: cKit(D816H)(h) (Homo sapiens, UniProt P10721, D816H)
How it was run: as §1

[4] = molecular target: CDK7/cyclinH/MAT1(h) (Homo sapiens, UniProt P50613)
How it was run: as §1

[5] = molecular target: T2, Tie2(h) (Homo sapiens, UniProt Q02763)
T2 construct: purchased Millipore
How it was run: as §1

[6] = molecular target: ALK(h) (Homo sapiens, UniProt Q9UM73)
How it was run: as §1

[7] = molecular target: T3, PKG1β(h) (Homo sapiens, UniProt Q13976)
T3 sequence (Q13976 1-686 isoform Q13976-2): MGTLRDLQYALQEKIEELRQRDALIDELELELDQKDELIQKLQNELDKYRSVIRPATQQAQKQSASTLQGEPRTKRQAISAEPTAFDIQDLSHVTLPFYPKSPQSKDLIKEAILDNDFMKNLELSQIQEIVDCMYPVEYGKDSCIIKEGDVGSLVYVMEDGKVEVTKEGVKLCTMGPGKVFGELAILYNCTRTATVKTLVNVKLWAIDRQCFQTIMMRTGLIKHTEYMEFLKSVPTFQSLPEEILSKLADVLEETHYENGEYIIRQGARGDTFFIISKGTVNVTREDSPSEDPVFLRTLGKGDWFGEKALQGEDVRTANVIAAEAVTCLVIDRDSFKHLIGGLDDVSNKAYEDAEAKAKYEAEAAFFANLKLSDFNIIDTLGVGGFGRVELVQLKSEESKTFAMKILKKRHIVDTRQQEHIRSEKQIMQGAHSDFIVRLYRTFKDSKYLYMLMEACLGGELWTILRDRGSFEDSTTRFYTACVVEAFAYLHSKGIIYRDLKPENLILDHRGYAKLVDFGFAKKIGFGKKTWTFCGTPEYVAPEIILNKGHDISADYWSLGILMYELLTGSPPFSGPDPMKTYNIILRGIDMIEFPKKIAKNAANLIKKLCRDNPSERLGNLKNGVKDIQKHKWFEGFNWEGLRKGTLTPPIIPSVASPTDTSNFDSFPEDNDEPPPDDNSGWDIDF
How it was run: as §1

[8] = molecular target: T4, PKCε(h) (Homo sapiens, UniProt Q02156)
T4 sequence (Q02156 1-737): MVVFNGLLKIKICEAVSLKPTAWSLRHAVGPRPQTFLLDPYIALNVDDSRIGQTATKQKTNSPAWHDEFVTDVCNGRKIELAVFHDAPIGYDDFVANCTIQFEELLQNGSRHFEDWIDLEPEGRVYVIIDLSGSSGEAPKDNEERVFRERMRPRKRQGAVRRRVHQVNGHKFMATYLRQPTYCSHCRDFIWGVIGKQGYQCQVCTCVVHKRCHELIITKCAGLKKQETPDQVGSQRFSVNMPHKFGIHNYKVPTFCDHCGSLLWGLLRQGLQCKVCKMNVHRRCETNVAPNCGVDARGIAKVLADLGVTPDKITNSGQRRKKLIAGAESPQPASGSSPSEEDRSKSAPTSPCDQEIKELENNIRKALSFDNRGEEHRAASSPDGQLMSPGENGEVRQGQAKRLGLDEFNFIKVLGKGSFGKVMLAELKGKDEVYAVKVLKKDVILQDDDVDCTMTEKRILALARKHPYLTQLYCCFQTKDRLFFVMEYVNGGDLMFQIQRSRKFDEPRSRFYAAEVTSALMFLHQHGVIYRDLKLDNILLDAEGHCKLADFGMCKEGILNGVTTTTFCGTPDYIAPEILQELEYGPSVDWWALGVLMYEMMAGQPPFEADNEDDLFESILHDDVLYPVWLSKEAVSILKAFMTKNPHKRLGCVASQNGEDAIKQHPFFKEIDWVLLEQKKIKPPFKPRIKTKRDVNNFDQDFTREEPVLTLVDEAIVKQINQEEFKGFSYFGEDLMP
How it was run: as §1

[9] = molecular target: Fms(Y969C)(h) (Homo sapiens, UniProt P07333, Y969C)
How it was run: as §1

Flt4(h), sequence (P35916 25-1363): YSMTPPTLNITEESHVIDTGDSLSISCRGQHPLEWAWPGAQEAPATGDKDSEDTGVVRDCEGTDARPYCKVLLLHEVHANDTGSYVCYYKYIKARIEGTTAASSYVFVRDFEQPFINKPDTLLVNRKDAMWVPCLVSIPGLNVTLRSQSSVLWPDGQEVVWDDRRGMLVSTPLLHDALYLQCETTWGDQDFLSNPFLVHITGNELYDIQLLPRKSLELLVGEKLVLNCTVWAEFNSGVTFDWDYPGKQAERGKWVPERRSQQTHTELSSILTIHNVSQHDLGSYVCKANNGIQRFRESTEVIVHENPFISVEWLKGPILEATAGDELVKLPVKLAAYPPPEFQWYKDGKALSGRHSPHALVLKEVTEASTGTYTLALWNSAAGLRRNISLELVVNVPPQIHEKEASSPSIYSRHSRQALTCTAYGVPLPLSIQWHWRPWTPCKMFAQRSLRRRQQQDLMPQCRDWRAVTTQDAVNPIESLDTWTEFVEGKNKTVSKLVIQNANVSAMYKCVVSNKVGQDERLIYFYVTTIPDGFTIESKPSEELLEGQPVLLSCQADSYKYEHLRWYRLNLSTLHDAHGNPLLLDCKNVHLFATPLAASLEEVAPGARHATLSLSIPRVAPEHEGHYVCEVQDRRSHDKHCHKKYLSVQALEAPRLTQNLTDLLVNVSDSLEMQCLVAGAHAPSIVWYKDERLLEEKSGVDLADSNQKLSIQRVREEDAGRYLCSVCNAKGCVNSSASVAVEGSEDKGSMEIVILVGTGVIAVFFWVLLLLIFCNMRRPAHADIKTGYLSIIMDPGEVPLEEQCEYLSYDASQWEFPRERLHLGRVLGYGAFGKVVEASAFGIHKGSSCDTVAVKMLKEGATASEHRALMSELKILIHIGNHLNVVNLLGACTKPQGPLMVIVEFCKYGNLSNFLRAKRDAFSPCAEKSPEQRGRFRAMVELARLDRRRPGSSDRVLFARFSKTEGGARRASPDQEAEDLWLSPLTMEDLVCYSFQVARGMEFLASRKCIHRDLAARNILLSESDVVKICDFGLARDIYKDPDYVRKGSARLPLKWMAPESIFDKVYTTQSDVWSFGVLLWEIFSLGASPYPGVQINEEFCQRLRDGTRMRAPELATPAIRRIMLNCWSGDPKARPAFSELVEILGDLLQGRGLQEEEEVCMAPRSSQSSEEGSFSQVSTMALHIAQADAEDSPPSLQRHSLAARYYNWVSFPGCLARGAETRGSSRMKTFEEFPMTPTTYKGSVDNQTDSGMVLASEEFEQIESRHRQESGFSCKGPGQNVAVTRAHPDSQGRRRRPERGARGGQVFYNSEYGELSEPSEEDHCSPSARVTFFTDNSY
ALK(h), sequence (Q9UM73 19-1620): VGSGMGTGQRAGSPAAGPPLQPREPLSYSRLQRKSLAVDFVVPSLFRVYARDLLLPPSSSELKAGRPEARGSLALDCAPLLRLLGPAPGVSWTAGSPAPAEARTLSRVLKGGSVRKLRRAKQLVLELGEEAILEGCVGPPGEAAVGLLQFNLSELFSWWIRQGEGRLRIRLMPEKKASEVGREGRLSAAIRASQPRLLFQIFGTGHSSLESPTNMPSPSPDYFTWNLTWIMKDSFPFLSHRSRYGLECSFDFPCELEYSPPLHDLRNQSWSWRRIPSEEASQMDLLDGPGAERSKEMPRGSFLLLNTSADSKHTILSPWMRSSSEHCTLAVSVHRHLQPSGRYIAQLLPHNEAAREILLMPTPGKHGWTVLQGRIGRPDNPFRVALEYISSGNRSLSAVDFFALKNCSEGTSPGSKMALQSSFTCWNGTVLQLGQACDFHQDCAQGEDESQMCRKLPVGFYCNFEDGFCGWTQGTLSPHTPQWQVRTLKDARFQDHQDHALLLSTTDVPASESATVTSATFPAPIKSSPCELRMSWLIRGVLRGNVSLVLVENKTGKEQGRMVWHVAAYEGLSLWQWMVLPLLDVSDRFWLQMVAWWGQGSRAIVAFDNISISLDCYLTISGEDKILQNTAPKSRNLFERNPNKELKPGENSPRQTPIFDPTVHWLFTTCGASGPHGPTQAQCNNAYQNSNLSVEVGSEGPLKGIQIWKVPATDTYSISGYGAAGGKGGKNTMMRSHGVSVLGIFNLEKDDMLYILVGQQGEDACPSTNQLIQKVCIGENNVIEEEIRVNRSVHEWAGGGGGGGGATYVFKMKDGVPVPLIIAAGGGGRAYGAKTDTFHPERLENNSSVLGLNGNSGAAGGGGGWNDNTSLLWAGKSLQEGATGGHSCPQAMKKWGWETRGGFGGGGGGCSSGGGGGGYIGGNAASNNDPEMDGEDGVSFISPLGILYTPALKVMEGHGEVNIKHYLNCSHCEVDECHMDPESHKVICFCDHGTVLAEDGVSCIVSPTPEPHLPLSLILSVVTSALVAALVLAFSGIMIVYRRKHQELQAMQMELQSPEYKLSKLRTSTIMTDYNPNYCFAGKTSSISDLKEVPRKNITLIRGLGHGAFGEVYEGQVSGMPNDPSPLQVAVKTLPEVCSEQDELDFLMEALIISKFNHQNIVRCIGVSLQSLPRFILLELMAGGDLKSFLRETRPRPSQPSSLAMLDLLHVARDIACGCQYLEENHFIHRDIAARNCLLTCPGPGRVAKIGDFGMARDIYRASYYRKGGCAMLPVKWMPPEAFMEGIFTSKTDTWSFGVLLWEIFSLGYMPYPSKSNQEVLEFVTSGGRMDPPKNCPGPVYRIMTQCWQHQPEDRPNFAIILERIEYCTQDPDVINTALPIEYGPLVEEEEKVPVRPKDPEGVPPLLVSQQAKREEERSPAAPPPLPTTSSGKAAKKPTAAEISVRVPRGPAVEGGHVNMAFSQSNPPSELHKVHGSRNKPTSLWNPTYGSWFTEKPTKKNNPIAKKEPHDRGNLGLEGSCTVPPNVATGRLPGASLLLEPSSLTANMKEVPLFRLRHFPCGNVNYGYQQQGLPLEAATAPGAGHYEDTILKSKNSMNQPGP
CDK7/cyclinH/MAT1(h), sequence (P50613 whole entry): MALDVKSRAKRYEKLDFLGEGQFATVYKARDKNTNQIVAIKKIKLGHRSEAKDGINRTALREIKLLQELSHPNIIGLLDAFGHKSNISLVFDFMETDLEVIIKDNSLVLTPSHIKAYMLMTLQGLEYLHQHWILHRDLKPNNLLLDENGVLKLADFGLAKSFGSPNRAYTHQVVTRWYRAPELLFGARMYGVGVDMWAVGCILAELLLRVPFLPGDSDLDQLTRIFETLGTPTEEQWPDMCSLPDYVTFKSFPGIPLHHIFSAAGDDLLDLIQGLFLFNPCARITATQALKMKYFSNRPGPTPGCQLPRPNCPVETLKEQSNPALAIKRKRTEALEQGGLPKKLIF
CDK7/cyclinH/MAT1(h), sequence (P51946 whole entry partner): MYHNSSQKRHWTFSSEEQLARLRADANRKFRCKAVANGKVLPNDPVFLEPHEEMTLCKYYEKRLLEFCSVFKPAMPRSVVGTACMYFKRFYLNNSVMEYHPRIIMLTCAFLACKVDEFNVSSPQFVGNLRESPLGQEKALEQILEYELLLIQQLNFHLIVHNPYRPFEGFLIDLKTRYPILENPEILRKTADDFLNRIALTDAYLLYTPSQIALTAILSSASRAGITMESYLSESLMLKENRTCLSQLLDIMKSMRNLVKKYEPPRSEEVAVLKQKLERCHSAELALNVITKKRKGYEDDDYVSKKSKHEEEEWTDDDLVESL
CDK7/cyclinH/MAT1(h), sequence (P51948 whole entry partner): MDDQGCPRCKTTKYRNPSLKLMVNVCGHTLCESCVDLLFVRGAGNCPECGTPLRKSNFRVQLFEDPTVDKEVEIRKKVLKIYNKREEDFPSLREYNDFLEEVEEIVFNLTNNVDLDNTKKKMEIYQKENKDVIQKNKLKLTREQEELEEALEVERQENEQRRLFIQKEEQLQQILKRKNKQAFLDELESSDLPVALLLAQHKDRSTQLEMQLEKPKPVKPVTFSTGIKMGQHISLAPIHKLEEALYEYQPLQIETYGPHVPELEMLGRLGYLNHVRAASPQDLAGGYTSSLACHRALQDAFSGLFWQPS
T2 sequence (Q02763 23-1124): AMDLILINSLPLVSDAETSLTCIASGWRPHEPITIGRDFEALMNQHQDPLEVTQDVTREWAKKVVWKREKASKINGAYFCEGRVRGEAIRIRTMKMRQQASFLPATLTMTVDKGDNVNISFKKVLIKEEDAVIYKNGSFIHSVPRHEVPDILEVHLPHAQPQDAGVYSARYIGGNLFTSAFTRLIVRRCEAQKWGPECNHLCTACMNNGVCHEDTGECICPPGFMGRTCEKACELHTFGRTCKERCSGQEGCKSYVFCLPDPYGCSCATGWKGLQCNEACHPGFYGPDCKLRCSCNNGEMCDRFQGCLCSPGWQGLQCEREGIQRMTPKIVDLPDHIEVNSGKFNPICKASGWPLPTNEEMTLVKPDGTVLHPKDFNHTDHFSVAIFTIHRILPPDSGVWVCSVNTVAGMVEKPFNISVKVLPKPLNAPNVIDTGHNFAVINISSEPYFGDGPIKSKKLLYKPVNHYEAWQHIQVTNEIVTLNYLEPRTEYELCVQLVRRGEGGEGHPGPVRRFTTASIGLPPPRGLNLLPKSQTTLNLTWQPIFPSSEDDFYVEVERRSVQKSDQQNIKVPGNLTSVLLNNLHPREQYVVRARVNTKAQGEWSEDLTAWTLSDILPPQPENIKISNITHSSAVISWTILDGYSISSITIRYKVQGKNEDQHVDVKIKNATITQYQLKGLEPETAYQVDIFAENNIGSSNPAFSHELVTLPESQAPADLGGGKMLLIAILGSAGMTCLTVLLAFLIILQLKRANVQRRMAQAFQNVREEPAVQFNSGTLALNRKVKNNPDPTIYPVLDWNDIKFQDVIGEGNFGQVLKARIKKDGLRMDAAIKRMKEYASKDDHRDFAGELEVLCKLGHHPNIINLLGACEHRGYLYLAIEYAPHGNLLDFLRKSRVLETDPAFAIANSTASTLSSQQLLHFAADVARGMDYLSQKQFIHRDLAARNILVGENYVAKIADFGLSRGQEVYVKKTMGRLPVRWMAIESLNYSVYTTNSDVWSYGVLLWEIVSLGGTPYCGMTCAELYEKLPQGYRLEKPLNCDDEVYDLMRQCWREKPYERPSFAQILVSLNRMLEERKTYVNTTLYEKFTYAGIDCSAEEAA

Sequence	% activity [1]	% activity [2]	% activity [3]	% activity [4]	% activity [5]	% activity [6]	% activity [7]	% activity [8]	% activity [9]
HRRIKAWLKKIKALARQLGVAA (Mammal) [MMI-0500]	73%	10%	194%	15%	22%	12%	24%	23%	
YARAAARQARAKALNRQLGVA (Mammal) [MMI-0200]		78%		67%	53%	95%	57%	98%	88%
YARAAARQARAKALARQLGVAA [MMI-0100]	135%	84%	79%		28%	118%	71%		126%
FAKLAARLYRKALARQLGVAA [MMI-0300]	83%	33%	126%	65%	26%	19%	50%	79%	72%
KAFAKLAARLYRKALARQLGVAA [MMI-0400]	89%	25%	143%	47%	21%	16%	53%	59%	91%
